From the nanobody polyreactivity screen of Harvey et al. (2022)

Assay: yeast display, Sf9 membrane polyspecificity reagent, FACS + sequencing; frameworks hold sequencing errors
Outline: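 After 36–48 hours of galactose induction, yeast (Saccharomyces cerevisiae BJ5465) displaying a synthetic nanobody library were stained at 4 °C for 1 hour with 10% biotinylated, detergent-solubilized Sf9 membrane reagent. Streptavidin microbeads enriched the stained cells before FACS sorting into low and high (top ~1%) gates on anti-HA and streptavidin fluorescence. Each clone's polyreactivity label reflects its gate of origin.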

Sequence	polyreactivity (PSR sort gate)
QVQLVESGGGLVQSGGSLRLSCAASGGIFRYYVMGWYRQAPGKERELVAPINSGGTTYYEDSVKGRFTISRDNAKNTVYLQMNSLKPEDTAVYFCAAYYAGFGYNYWGQGTQVTVSS	low polyreactivity
QVQLVESGGGLVQAGGSLRLSCAASGRIFRSNAKGWYRQAPRKERELVAAISGGGSTYYADSVKGRFTISRDNAKNTVYLQMNSLKPEDTAVYYCAAGRHLAYWSRDYYYWGQGTQVTVSS	high polyreactivity
QVQLVESGGGLVQAGGSLRLSCAASGRIFAGYGMGWYRQAPGKERELVAAISSGGSTYYADSVKGRFTISRDNAKNTVYLQMNSLKPEDTAVYYCATDGQSVPDDYYQNVDYDYWGQGTQVTVSS	low polyreactivity
QVQLVESGGGLDQAGCSLRLSCAASGRIFYVYDMGWYRQAPGKERELVATITSSGDGTYYADSVKGRFTSSRDNAKNTVYLQMNSLKPEDTAVYYCARRYFVRFVNPPYYYWGHGTQVTVSS	low polyreactivity
QVQLVESGGVLVQPGGSLRLSCAASGSTFQSYTMGWYRQAPGKERELVAAISSSGGRTYYADSVKGRFTISRDNEKNTVYLQMNRLKPEDTAVYYCAAVTKSWRGATWYDYWGQGTHVTVSS	high polyreactivity
QVQLVESGGGLVQAGGSLRLSCAASGSIFYRNAMGWYRQAPGKERELVAAISASGGSTYYADSVKGRFTISRDNAKNTVYLQMNSLNPEDTAFYYCAVEYRKSRSYYPYYYWGQGTQVTVSS	high polyreactivity
QVQLVESGGGLVQAGGSLRLSCAASGFTFLIYAMGWYRQAPGKERELVAAITWRGSGTYYADSVKGRFTISRDNAKNTVYLQMNSLNPEDTAVFYCGARTARRTYDYWGQGTQVTVSS	low polyreactivity
QVQLVESGGGLVQAGGSLRLICAASGLIFPRYDMGWYRQAPGKERELVAAITSGGGTYYADSVKGRFTISRDNAKNTVYLQMNSLKPEDTAVYYCARDHYRHSRYFYRYDYWGQGTQVTVSS	low polyreactivity
QVQLVESGGGLVQAGGSLRLTFAASGRTFGYYAMGWSRQAPGKEREWVAAISWSGTSTYYADSVKGRFTISRDNAKNTVYLQLNSLKPEDTAVYYCNAVNVAVQWTSRYYYWGHGTQVTVSS	high polyreactivity
QVQLVESVVGLVQAGGSLRLSCADSGSTFRSNAMGWYRQAPGKETELVAGITSGTSTNYADSVKGRFTISRDNAKNTVYLQMNSLKPEDTAVYYCNTDRIWYGPEYDFWGQGTQVTVSS	low polyreactivity
QVQLVESGGGLVQAGGRLRLSCAASGRTFSNYAKGWYRQAPGKEREFVAGIRYNGGSTYYADSVKGRFTISRDNAKNTVYLQMKSLKPEDTAVYYCAARYSRSMDYWGQGTQVTVSS	high polyreactivity
QVQLVESGGGLVQAGGSLRLTCAASGSIFPFYAKGWYRQATGKERELVAAISDSGGDTYYADSVKGRFTISRDNAKNTVYLQMNSLKPEDTAVYYCAADCFYNSFNYWGQGTQVTVSS	low polyreactivity
QVKLVESGGGLVQSGGSLRLSCAASGSILDVNAMGWYRQAPGKERELVAAISDSGGSTYYADSVKGRFTISRDNAKNTVYLQMNSLKPEDTAVYYCATAYYYHGGYYYPYDDYWGQGTQVTVSS	low polyreactivity
QVQLVESGGGLVQAGGSLRLSCAASGRTFALYAMGWYRQAPGTERELVASISWRGGSTYYADSVKGRFTISRDNAKNTVYLQMNSLKPEDTAVYYCAADTWSYGPLNYRLEYWGQGTQVTVSS	low polyreactivity
QFQLVESGGGLVQAGGSLRLSCAASGLTFGYYAMGWYRQAPGKERELVAAITSRGGSTYYADSVKRRFTISRDNAKNTVYLQMNSLKPEDTAVYYCAARYAEYGSWGQGTQVTVSS	high polyreactivity
QVQLEESGGGLVQAGGSLRLSCAATGSIFYSYAMGSNRQAPGKEMELVATISTGGSTDYADSVKGRYTISRDNAKNTVYLQMNSLKPEETAVYYCATSGPYWWLVYWGQGTQVTVSS	low polyreactivity
QVQLVESGGGLFQAGVSLRLSCAASGSTFDYYAMGWYRQPPAKERELVAAIRYRGGRTYYADSVKWRFTISRDNAKNTVYLQLNSLKPEDTAVYYCAALTIQSSKTYDYWGQGTQVTVSS	low polyreactivity
QVQLVESGGGLVQAGGSLRLSCAASGITFNEYAMGWYIQAPGKERELVAAISRRGGSTYYADSVKGRFTISRDNAKNTVYLQMNSLKPEDTAVYYCAAYYPSHEYSGFWSDTYEYWGQGTQVTVSS	low polyreactivity
QVQHVESGGGLVQAGGSLRLSCASSGRIFYFYAMGWYRQAPGKLRELVAAISTSGGSTYYADSVKGRFKISRDNATNTVYLQMNSLKPEDPAVYYCAGRFRYYGSEYDYWGQGTQVTVSS	low polyreactivity
QVQLVESGGGLVQAGGSLRLSCAASGRIIYGYAMGWYRQEPGKERELVAAITATYYGDSVKGRFTISRDNAKNTVYLQMNSLKPEDTAVYYCNAYLCPKQPLSPPDPTFEGGYWGQCTQVTVSS	low polyreactivity
QVQLVESGGGLVQAGGSLRLSCAASGSIFRYYDMGWYRQAPGKERELVAAISYSDGRTYYADSVKGRFTISRDNAKNTVYLQMNSLKPEDTAVYYCAAETLYVSPYFFVVQYDYWGQGTKVTVSS	high polyreactivity
QVQLVESGGGLVQAGGSLRLSCAASGRIFGAYAMGWYRQAPGKERELVAAISSRGGNTYYADSVKGRFTISRDNAKNTVYLQMNSLKPEDTAVYYCAARHDKRRQYYVGQSDFDYWGQGTQVTVSS	low polyreactivity

Sequence	polyreactivity (PSR sort gate)
QVQLVESGGGLVQAGGSLRLSCAASGLTFPSYAMGWYRQAPGKVSELVAAISARGGGTYYADSVKGRFTISRDNAKNTVYLQMNSLKPEDTAVYYCAADPVYAGPGYDYWGQGTQVTVSS	high polyreactivity
QVQLVESGGGLVQAGGSVRLSCAASGFIFTDNAMGWYRQPPLKERELVAAINLSGTRTYYADSVKGRFTISLDNAKNTVSLQMNSLKPEDTAVYYCNISEDYSYEYWGQGTQVTVSS	low polyreactivity
QVQLVESGGGLVQAGGTLSLSCAATGRNFYCYAMGWYRQAHGKERELVAAINWSGGTTYYADSVKGRFTISRDNAKNTVYLQMNSLKPEDTAVYYSAADRILEMGYWGQGTQVTVSS	low polyreactivity
QVHLVESGGGLVQAGGILRLSCAASGRTFLWYAMGWSRQAPGKERELVAAISKRGGSTYYADSVKGRFTISRDKAKNTVYLQMNSLKPVDTAVYYCAAEKRYSSYDYWGQGTQVSVSS	high polyreactivity
QVQLVETGGGLVQAGGSLRLSCADSGRIFRYYVMGWYRQAPGKERELVAAISRSGGSTYYADSVKGRFTISRDNAKNTVYLQMNSLKPEETAVYYCAKRVSTYGFSGYDYWGQGTQVTVSS	high polyreactivity
QVQLVESGGGLVQAGGSLRLSCAASGRTFGFNVMGWYRQAPGKEREFVAAITRSGGSTYYADSVKGRFTISRDIAKNTVYLQMNSLKPEDTAVYSCAAYKFSARYYYWGQGTQVTVSS	high polyreactivity
QVQLVESGGGLVQAGGSLRLSCAASGSIFYTNAMGWYRPAPGKERELVAAIRTGGSTNYADSVKGRFTISRDNAKNTVYLQMNSLKPEDTAVYYCAAAYGYGHKKYGYWGQATQVTVSS	low polyreactivity
QVQLVESGGGLVQAGGSLRLSCAASGRIFVGYAMGWYRQAPGKERELVAAISARGGSTYYADSVKGRFTISRDNAKNTVYLQMNSLKPEDTAVYYCAADEASSRGYYDYDYWGQGTQVTVSS	low polyreactivity
QVQHVESGGGLVQAGGSLRLSCAASGFIFASYTMGWYRQAPGKERELVATISRGGSTYYADSVKGRFTISRDNAKNTVYLQMNSLKPEATAVYYCATDVGKRAGYYGGVYPDFDYWGQGTQVTVSS	low polyreactivity
QVQLVESGGGLVQAGGSLRLSCAASGITFYVYALGWYRQAPGKARALVAANNYDSGSTYYADSEKGRFTISRDNAKNTVYIQKNSLKPEDTAGYYCATDGVNPFYAYDYWGQGTQVTVSS	low polyreactivity
QVQLVESGGGLVQAGGSLRLSCAASGIILRGYVIGWYRQAPGQERELVAAISTSGGRTYYADSVKGRFTISRDNAKNTVYLQMNSLKQEDTAVYYCAAVSSRLWLYDYWGQGTQVTVSS	high polyreactivity
QVQLVESGGGLVQAGGSLRLSCAASGRILDINTMRGYRHPPGKERELVAAITWSGVSTYYADSVKGRFTISRDNAKNTVYLQMNSLKPEDTAVYYCAARPYYTWRYLPTNSGDYWGQGTQETVSS	low polyreactivity
QVQLVESGGGLVQAGGSLRLSCAASGSTVGHYAMGWYRQAPGKERELVAAISVSGGSTYYADSVKGRFTISRDTAKNTVYLQMNSLKPEDTAVYYCAREYAHLSFLSTSSDYWGQGTQVTVSS	low polyreactivity
QVQLVESGGGLVQAGGSLRLSCAASGRIFNNNAMGWYRPAPGKERELVASITRRGGRTYYADSVKGRFTISRDNAKNTVYLQMNSLKPEDTAVYYCNALAGPPEFVRNYYWGQGTQVTVSS	high polyreactivity
QVQLVESGGGLVQAGGSLRLSCAASGRTFQYNVMGWYRQAPGKEREFVAAITWNGGSTYYADSVKGRFTISRDNAKNTVYLQMNSLKPEDPAVYYCAARWTKKQEYGYWGQGTQVTVSS	low polyreactivity
QVQLVESGGGLVQAGGSLRLSCAASGFIFSHYAMGWYRQAPGKERELVAAISWSGDSTYYADSVKGRFTLSRDNAKNTVDLQMNSLKPEDTAVYYCNAVYFWVRYLKFLEFGYWGQGTQVTVSS	high polyreactivity
QVQLQESGGGLVQAGGSLRLSCAASGSIFLFYTMGCYRPAPVKEREFVAGITLGTTTYNADSVKGRFTISRDNVKNTVYLQMNSLNPVDSAVYYCAVAVGHYTEFWYWGQGTQVTMSS	high polyreactivity
QVQLVESGRGLVQAGGSLSLSCAASGITFGNYAMGWYRQAPGKERELVAAITGSGGRTYYADSVKVRFTISRDNAKNTVYLQMNSLKPEDTAVYDCAAKQYTRFGYYYWGQGTQLTVSS	high polyreactivity
QVQLVESGGGLDQAGGSLRLSCAASGGILVIYAMGWYRQEPGKERELVAAINVSGGSTYYADSVKGRFTISRDNAKNTVYLQMNSLKPEDTAVYYCAALGPYLDYGVQYGYWGQGTQVTVSS	low polyreactivity
QFQLVESGGGLVQAGGSLRLSCAATGRTFYIYSMGWYRQAPGKERELVAAITSGGSTSYADSVKGRFTISRDNAKNTVYLQMNSLKPEDTAVYYCAADQYTYWFGYDYWGQGTQVTVSS	low polyreactivity
QVQLVESGGRLFQAGGSLRLSCAASGRNFCRYVMGWYRQAPGKERELVATISSGGSTNYADSVKGRFTISRDNAKNTVYLQMNSMKTEVTAVYYSAAYIYDGFWVYPYYPYDYWGQGTQVTVSS	low polyreactivity
